Test results: patent US20230159961A1, “BIOSYNTHESIS OF CHEMICALLY DIVERSIFIED NON-NATURAL TERPENE PRODUCTS” (Board of Trustees of Michigan State University, priority 2019, published 2023)
Values belong to the molecule of their own block, whether it stands above or below them.

Tests used:
[1] = test system: Coleus forskohlii CfTPS2 and Salvia sclarea SsSCS; assay: coupled class II / class I in vitro assay with methyl-GGDP (C21) substrate; type: biochemical; details: CfTPS2 and SsSCS used together; product structure similar to sclareol (FIG. 10)
Method: A typical high-throughput in vitro diTPS assay in lml contained 5 μg substrate, 200 μg purified enzyme (class II plus class I for labdanoid-type diterpenes, or class I for irregular diterpenes), and 10mM buffer with magnesium. Reactions are carried out for 1 hour at 16° C., followed by vortexing with an equal volume of hexane to extract the products into the organic phase, prior to removal for GC/MS analysis.
Reactions leading to novel compounds can be scaled up for structural elucidation. The scale-up procedure involved the same composition. However, in coupled assays of pairs of diTPS, the class II enzyme may be pre-incubated with substrate for two hours, before adding the class I diTPS.
Enzymes Coleus forskohlii CfTPS2 (SEQ ID NO:69) and Salvia sclarea SsSCS (SEQ ID NO:61) were coupled in an in vitro assay to ascertain whether the synthetic unnatural methyl-GGDP (C21) substrate can efficiently yield the corresponding C21 methyl-diterpene.

[2] = test system: DgTPS1 (casbene synthase); assay: in vitro diTPS assay: casbene synthase DgTPS1 reacted with unGGPP, products by GC/MS; type: biochemical, Daphne genkwa; details: product mass consistent with a methyl-derivative of casbene
Method: A conserved irregular, macrocyclic structure is consistent with the fragmentation pattern of the major fragments of casbene (FIG. 5C-5D).
To assess substrate tolerance of class II diTPS, substrates are screened against a panel of twenty-five enzymes. Recombinant diTPS were expressed heterologously in E. coli, purified, and reconstituted in in vitro assays with the substrate to be tested. The products from the enzymatic action on the substrate were analyzed structural elucidation and downstream functionalization.
In particular, pET28b+plasmids containing N-terminally truncated diTPS variants (having the plastidial targeting signal removed to generate pseudomature enzymes) are transformed into E. coli BL-21DE3-C41 OverExpress cells. Cultures are grown at 37° C. and 180 rpm until the optical density at 600 nm reached 0.3 to 0.4. Cultures are cooled to 16° C., and expression is induced at an optical density at 600 nm of approximately 0.6 with 0.2 mM isopropylthiogalactoside. Cells are collected and lysed before purification of the His6-tagged enzymes with Ni-NTA columns.
A typical high-throughput in vitro diTPS assay in lml contained 5 μg substrate, 200 μg purified enzyme (class II plus class I for labdanoid-type diterpenes, or class I for irregular diterpenes), and 10mM buffer with magnesium. […]

[3] = test system: class I labdane-type diTPS; assay: class I labdane-type diTPS and tested substrates converted (Table 2); type: biochemical; details: decalin-core diphosphate substrates that the enzyme converted, enzymes functionally expressed
Source text: Instead of accepting the acyclic GGPP, class I enzymes can use structurally diverse decalin-core diphosphate intermediates generated by class II enzymes. At this stage, additional cyclizations, double-bond-, hydride and alkyl shifts can occur, followed by either proton abstraction or quenching of the final carbocation through a water molecule.
All enzymes in Table 2 were functionally expressed. Microbial sequences were expressed as synthetic variants, expression optimized for E. coli. See also FIG. 7.

product formation in coupled enzyme assay [1]: new methyl-diterpene product
Molecule: CC(C)=CCC/C(C)=C/CC/C(C)=C/CC/C(C)=C(\C)COP(=O)(O)OP(=O)(O)O [methyl-GGDP (C21)]

Molecule: CC(C)=CCC/C(C)=C/CC/C(C)=C/CC/C(C)=C(\C)COP(=O)(O)OP(=O)(O)O [unGGPP]
conversion of substrate to product, detected by gas chromatography / GC-MS [2]: novel product with a shifted retention time

B1: SsSCS (protein, listed as Salvia sclarea)
chain: MSLAFNVGVTPFSGQRVGSRKEKFPVQGFPVTTPNRSRLIVNCSLTTIDFMAKMKENFKREDDKFPTTTTLRSEDIPSNLCIIDTLQRLGVDQFFQYEINTILDNTFRLWQEKHKVIYGNVTTHAMAFRLLRVKGYEVSSEELAPYGNQEAVSQQTNDLPMIIELYRAANERIYEEERSLEKILAWTTIFLNKQVQDNSIPDKKLHKLVEFYLRNYKGITIRLGARRNLELYDMTYYQALKSTNRFSNLCNEDFLVFAKQDFDIHEAQNQKGLQQLQRWYADCRLDTLNFGRDVVIIANYLASLIIGDHAFDYVRLAFAKTSVLVTIMDDFFDCHGSSQECDKIIELVKEWKENPDAEYGSEELEILFMALYNTVNELAERARVEQGRSVKEFLVKLWVEILSAFKIELDTWSNGTQQSFDEYISSSWLSNGSRLTGLLTMQFVGVKLSDEMLMSEECTDLARHVCMVGRLLNDVCSSEREREENIAGKSYSILLATEKDGRKVSEDEAIAEINEMVEYHWRKVLQIVYKKESILPRRCKDVFLEMAKGTFYAYGINDELTSPQQSKEDMKSFVF
Substrate (tested substrates converted) [3]: ent-, syn-, (+)-CPP, (+)-8-LPP, ent-8-LPP, KPP, 9-LPP

B2: KgTPS2 (protein, listed as Kitasatospora griseola)
chain: MPDAIEFEHEGRRNPNSAEAESAYSSIIAALDLQESDYAVISGHSRIVGAAALVYPDADAETLLAASLWTACLIVNDDRWDYVQEDGGRLAPGEWFDGVTEVVDTWRTAGPRLPDPFFELVRTTMSRLDAALGAEAADEIGHEIKRAITAMKWEGVWNEYTKKTSLATYLSFRRGYCTMDVQVVLDKWINGGRSFAALRDDPVRRAIDDVVVRFGCLSNDYYSWGREKKAVDKSNAVRILMDHAGYDESTALAHVRDDCVQAITDLDCIEESIKRSGHLGSHAQELLDYLACHRPLIYAAATWPTETNRYR
Substrate (tested substrates converted) [3]: ent-, syn-, (+)-CPP, (+)-8-LPP, ent-8-LPP, KPP, 9-LPP

B3: ArTPS3 (protein)
chain: MSLSFTIKVTPFSGQRVHSSTESFPIQQFPTITTKSAMAVKCSSLSTATVSFQDFVGKIRDTINGKVDNSPAATTIHPADIPSNLCVVDTLQRLGVDRYFQSEIDSVLNDTYRFWQQKGEDIFTDVACRAMAFRLLRVKGYEVSSDELASYAEQEHVNLQPSDITTVIELYRASQTRLYEDEGNLEKLHTWTSNFLKQQLQSETISDEKLHKQVEYYLKNYHGILDRAGVRQSLDLYDINQYQNLKSTDRFPTLSNEDLLEFAKQDFNFCQAQHQKELQQLQRWYADCKLDTLTYGRDVVRVASFLTAAIFGEPEFSDARLAFAKHIILVTRIDDFFDHGGSIEESYKILDLVKEWEDKPAEEYPSKEVEILFTAVYNTVNDLAEMAYIEQGRSIKPLLIKLWVEILTSFKKELDSWTEDTELTLEEYLASSWVSIGCRICSLNSLQFLGITLSEEMLSSEECMELCRHVSSVDRLLNDVQTFEKERLENTINSVSLQLAEAQREGRTITEEEAMSKIKDLADYHRRQLMQMVYKDGTIFPRQCKDVFLRVCRIGYYLYASGDEFTTPQQMMGDMKSLVYEPLNTSSS
modifications: Ajuga reptans
Substrate (tested substrates converted) [3]: PgPP, (+)-CPP, (+)-8-LPP, ent-CPP
